Data taken from patent US20250011363A1, “OPTIMIZED SHORTENED PEPTIDE THAT BINDS TO ACETYLCHOLINE RECEPTOR, AND USE THEREOF” (SKINMED CO., LTD., priority 2021, published 2025).

B1: 6mer-1-335 (peptide)
peptide: RRSQRR
B2: 6mer-1-336 (peptide)
peptide: KRVVTK
B3: 6mer-1-337 (peptide)
peptide: RKSRRR
B4: 6mer-1-338 (peptide)
peptide: KKQVLK
B5: 6mer-1-339 (peptide)
peptide: KKSIQK
B6: 6mer-1-340 (peptide)
peptide: KRLLCK
B7: 6mer-1-341 (peptide)
peptide: RKQQQR
B8: 6mer-1-342 (peptide)
peptide: RKRFCR
B9: 6mer-1-343 (peptide)
peptide: KKLYTK
B10: 6mer-1-344 (peptide)
peptide: KKSQCR
B11: 6mer-1-345 (peptide)
peptide: KKLLCR
B12: 6mer-1-346 (peptide)
peptide: KKRIYR
B13: 6mer-1-347 (peptide)
peptide: KKQQSK
B14: 6mer-1-348 (peptide)
peptide: RKQRLK
B15: 6mer-1-349 (peptide)
peptide: KRLYSK
B16: 6mer-1-350 (peptide)
peptide: KKLQTK
B17: 6mer-1-351 (peptide)
peptide: RRGLRK
B18: 6mer-1-352 (peptide)
peptide: RKVFRK
B19: 6mer-1-353 (peptide)
peptide: KRLYLK
B20: 6mer-1-354 (peptide)
peptide: KKVFLK
B21: 6mer-1-355 (peptide)
peptide: RKVFYR
B22: 6mer-1-356 (peptide)
peptide: KRGYSK
B23: 6mer-1-357 (peptide)
peptide: KRRQTR
B24: 6mer-1-358 (peptide)
peptide: KRRYTR
B25: 6mer-1-359 (peptide)
peptide: KRQFLR
B26: 6mer-1-360 (peptide)
peptide: KRVFLK
B27: 6mer-1-361 (peptide)
peptide: RKSVQR
B28: 6mer-1-362 (peptide)
peptide: KRVVYK
B29: 6mer-1-363 (peptide)
peptide: KRQIRR
B30: 6mer-1-364 (peptide)
peptide: RKRQSK
B31: 6mer-1-365 (peptide)
peptide: KKRICK
B32: 6mer-1-366 (peptide)
peptide: KRWFCR
B33: 6mer-1-367 (peptide)
peptide: RKGFSK
B34: 6mer-1-368 (peptide)
peptide: RRRFSK
B35: 6mer-1-369 (peptide)
peptide: KKWYRK
B36: 6mer-1-370 (peptide)
peptide: RKQLYK
B37: 6mer-1-371 (peptide)
peptide: KRSLTR
B38: 6mer-1-372 (peptide)
peptide: RKLRSK
B39: 6mer-1-373 (peptide)
peptide: KRGVLK
B40: 6mer-1-374 (peptide)
peptide: KKQFQK
B41: 6mer-1-375 (peptide)
peptide: RRVFYR
B42: 6mer-1-376 (peptide)
peptide: RRQLRK
B43: 6mer-1-377 (peptide)
peptide: KRWITR
B44: 6mer-1-378 (peptide)
peptide: KRSLQK
B45: 6mer-1-379 (peptide)
peptide: KRRISK
B46: 6mer-1-380 (peptide)
peptide: KRLQLR
B47: 6mer-1-381 (peptide)
peptide: RKGFYR
B48: 6mer-1-382 (peptide)
peptide: KRQYTR
B49: 6mer-1-383 (peptide)
peptide: RKRRTK
B50: 6mer-1-384 (peptide)
peptide: RKVICK
B51: 6mer-1-385 (peptide)
peptide: KRQVLR
B52: 6mer-1-386 (peptide)
peptide: RRSYQK
B53: 6mer-1-387 (peptide)
peptide: KKGRLR
B54: 6mer-1-388 (peptide)
peptide: RRLLQR
B55: 6mer-1-533 (peptide)
peptide: RKWFSR
B56: 6mer-1-534 (peptide)
peptide: KKRLCR

target: acetylcholine receptor; assay: SPR, AchR immobilized on CM5 chip, peptide 10 uM

Question: With B1 as the binder, how does the Binding affinity (RU) read?
Answer: 148 RU

Question: For B2, which Binding affinity (RU) is on record?
Answer: 154 RU

Question: For B3, which Binding affinity (RU) is on record?
Answer: 144 RU

Question: How did the Binding affinity (RU) turn out when B4 was run?
Answer: 127 RU

Question: How did the Binding affinity (RU) turn out when B5 was run?
Answer: 147 RU

Question: For B6, which Binding affinity (RU) is on record?
Answer: 142 RU

Question: How did the Binding affinity (RU) turn out when B7 was run?
Answer: 128 RU

Question: B8 was tested. Which Binding affinity (RU) did it give?
Answer: 131 RU

Question: With B9 as the binder, how does the Binding affinity (RU) read?
Answer: 135 RU

Question: B10 was tested. Which Binding affinity (RU) did it give?
Answer: 125 RU

Question: Which Binding affinity (RU) does the source give for B11 here?
Answer: 147 RU

Question: For B12, which Binding affinity (RU) is on record?
Answer: 123 RU

Question: With B13 as the binder, how does the Binding affinity (RU) read?
Answer: 126 RU

Question: For B14, which Binding affinity (RU) is on record?
Answer: 142 RU

Question: B15 was tested. Which Binding affinity (RU) did it give?
Answer: 123 RU

Question: B16 was tested. Which Binding affinity (RU) did it give?
Answer: 153 RU

Question: B17 was tested. Which Binding affinity (RU) did it give?
Answer: 141 RU

Question: Which Binding affinity (RU) does the source give for B18 here?
Answer: 142 RU

Question: With B19 as the binder, how does the Binding affinity (RU) read?
Answer: 126 RU

Question: For B20, which Binding affinity (RU) is on record?
Answer: 153 RU

Question: With B21 as the binder, how does the Binding affinity (RU) read?
Answer: 148 RU

Question: Which Binding affinity (RU) does the source give for B22 here?
Answer: 153 RU

Question: How did the Binding affinity (RU) turn out when B23 was run?
Answer: 148 RU

Question: How did the Binding affinity (RU) turn out when B24 was run?
Answer: 124 RU

Question: How did the Binding affinity (RU) turn out when B25 was run?
Answer: 131 RU

Question: Which Binding affinity (RU) does the source give for B26 here?
Answer: 148 RU

Question: With B27 as the binder, how does the Binding affinity (RU) read?
Answer: 127 RU

Question: With B28 as the binder, how does the Binding affinity (RU) read?
Answer: 133 RU

Question: Which Binding affinity (RU) does the source give for B29 here?
Answer: 121 RU

Question: How did the Binding affinity (RU) turn out when B30 was run?
Answer: 124 RU

Question: For B31, which Binding affinity (RU) is on record?
Answer: 142 RU

Question: How did the Binding affinity (RU) turn out when B32 was run?
Answer: 133 RU

Question: For B33, which Binding affinity (RU) is on record?
Answer: 154 RU

Question: B34 was tested. Which Binding affinity (RU) did it give?
Answer: 145 RU

Question: Which Binding affinity (RU) does the source give for B35 here?
Answer: 144 RU

Question: With B36 as the binder, how does the Binding affinity (RU) read?
Answer: 142 RU

Question: B37 was tested. Which Binding affinity (RU) did it give?
Answer: 153 RU

Question: For B38, which Binding affinity (RU) is on record?
Answer: 145 RU

Question: With B39 as the binder, how does the Binding affinity (RU) read?
Answer: 149 RU

Question: For B40, which Binding affinity (RU) is on record?
Answer: 148 RU

Question: How did the Binding affinity (RU) turn out when B41 was run?
Answer: 154 RU

Question: How did the Binding affinity (RU) turn out when B42 was run?
Answer: 121 RU

Question: With B43 as the binder, how does the Binding affinity (RU) read?
Answer: 148 RU

Question: Which Binding affinity (RU) does the source give for B44 here?
Answer: 153 RU

Question: Which Binding affinity (RU) does the source give for B45 here?
Answer: 153 RU

Question: How did the Binding affinity (RU) turn out when B46 was run?
Answer: 121 RU

Question: For B47, which Binding affinity (RU) is on record?
Answer: 124 RU

Question: For B48, which Binding affinity (RU) is on record?
Answer: 139 RU

Question: For B49, which Binding affinity (RU) is on record?
Answer: 148 RU

Question: With B50 as the binder, how does the Binding affinity (RU) read?
Answer: 148 RU

Question: How did the Binding affinity (RU) turn out when B51 was run?
Answer: 127 RU

Question: Which Binding affinity (RU) does the source give for B52 here?
Answer: 127 RU

Question: For B53, which Binding affinity (RU) is on record?
Answer: 148 RU

Question: Which Binding affinity (RU) does the source give for B54 here?
Answer: 142 RU

target: acetylcholine receptor; assay: SPR, receptor on CM5 chip, peptide 10 µM

Question: With B55 as the binder, how does the Binding affinity (RU) read?
Answer: 145 RU

Question: How did the Binding affinity (RU) turn out when B56 was run?
Answer: 126 RU
